According to IntAct's records for PubMed 29039417:

B1: Protein PTHB1 (Homo sapiens), Q3SYG4 (parent)
chain: MSLFKARDWWSTILGDKEEFDQGCLCLANVDNSGNGQDKIIVGSFMGYLRIFSPHPAKTGDGAQAEDLLLEVDLRDPVLQVEVGKFVSGTEMLHLAVLHSRKLCVYSVSGTLGNVEHGNQCQMKLMYEHNLQRTACNMTYGSFGGVKGRDLICIQSMDGMLMVFEQESYAFGRFLPGFLLPGPLAYSSRTDSFLTVSSCQQVESYKYQVLAFATDADKRQETEQQKLGSGKRLVVDWTLNIGEQALDICIVSFNQSASSVFVLGERNFFCLKDNGQIRFMKKLDWSPSCFLPYCSVSEGTINTLIGNHNNMLHIYQDVTLKWATQLPHIPVAVRVGCLHDLKGVIVTLSDDGHLQCSYLGTDPSLFQAPNVQSRELNYDELDVEMKELQKIIKDVNKSQGVWPMTEREDDLNVSVVVSPNFDSVSQATDVEVGTDLVPSVTVKVTLQNRVILQKAKLSVYVQPPLELTCDQFTFEFMTPDLTRTVSFSVYLKRSYTPSELEGNAVVSYSRPTDRNPDGIPRVIQCKFRLPLKLICLPGQPSKTASHKITIDTNKSPVSLLSLFPGFASQSDDDQVNVMGFHFLGGARITVLASKTSQRYRIQSEQFEDLWLITNELILRLQEYFEKQGVKDFACSFSGSIPLQEYFELIDHHFELRINGEKLEELLSERAVQFRAIQRRLLARFKDKTPAPLQHLDTLLDGTYKQVIALADAVEENQGNLFQSFTRLKSATHLVILLIALWQKLSADQVAILEAAFLPLQEDTQELGWEETVDAAISHLLKTCLSKSSKEQALNLNSQLNIPKDTSQLKKHITLLCDRLSKGGRLCLSTDAAAPQTMVMPGGCTTIPESDLEERSVEQDSTELFTNHRHLTAETPRPEVSPLQGVSE
partner: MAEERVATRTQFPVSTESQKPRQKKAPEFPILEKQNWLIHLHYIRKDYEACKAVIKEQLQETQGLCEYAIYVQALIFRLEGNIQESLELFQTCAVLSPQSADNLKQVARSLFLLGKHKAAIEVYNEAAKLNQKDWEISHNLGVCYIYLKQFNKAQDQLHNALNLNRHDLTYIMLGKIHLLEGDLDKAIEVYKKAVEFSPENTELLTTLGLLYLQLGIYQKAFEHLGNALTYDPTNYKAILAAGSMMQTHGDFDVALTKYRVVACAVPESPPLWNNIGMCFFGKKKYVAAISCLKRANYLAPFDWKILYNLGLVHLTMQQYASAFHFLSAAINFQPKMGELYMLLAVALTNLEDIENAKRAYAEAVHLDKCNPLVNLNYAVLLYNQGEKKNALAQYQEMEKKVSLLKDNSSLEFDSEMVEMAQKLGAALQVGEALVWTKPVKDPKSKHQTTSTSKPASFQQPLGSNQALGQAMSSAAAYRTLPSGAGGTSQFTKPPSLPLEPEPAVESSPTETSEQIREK

Variants of: B1
Details: with bbs4_human BBS4, Q96RK4

Variant	effect of a mutation on the interaction
P691A	with no effect
P691E	with no effect
P691K	with no effect
P691L	disrupting interaction strength
P691S	disrupting interaction strength
L692A	disrupting interaction strength
L692E	with no effect
L692K	with no effect
Q693A	disrupting interaction strength
Q693E	with no effect
Q693K	with no effect
H694A	with no effect
H694E	disrupting interaction strength
H694K	with no effect
H694Y	disrupting interaction strength
L695A	with no effect
L695E	with no effect
L695K	with no effect
L695M	disrupting interaction strength
D696A	with no effect
D696E	with no effect
D696K	with no effect

Variant	effect of a mutation on the interaction
D696N	disrupting interaction strength
D696V	disrupting interaction strength
T697A	with no effect
T697C	disrupting interaction strength
T697E	with no effect
T697K	with no effect
L698A	with no effect
L698E	disrupting interaction strength
L698K	with no effect
L698S	disrupting interaction strength
L699A	with no effect
L699E	with no effect
L699K	disrupting interaction strength
D700A	with no effect
D700E	with no effect
D700K	with no effect
G701A	with no effect
G701E	disrupting interaction strength
G701K	with no effect
T702A	with no effect
T702C	disrupting interaction strength
T702E	with no effect

Results, then the variant that gave them:

effect of a mutation on the interaction	Variant
with no effect	T702K
disrupting interaction strength	T702R
with no effect	Y703A
with no effect	Y703E
disrupting interaction strength	Y703H
with no effect	Y703K
with no effect	K704A
with no effect	K704E
with no effect	Q705A
with no effect	Q705E
with no effect	Q705K
disrupting interaction strength	Q705M
with no effect	V706A
with no effect	V706E
with no effect	V706K
with no effect	I707A
with no effect	I707E
with no effect	I707K
with no effect	A708E
with no effect	A708K

effect of a mutation on the interaction	Variant
with no effect	L709A
with no effect	L709E
with no effect	L709K
with no effect	A710E
with no effect	A710K
with no effect	D711A
with no effect	D711E
with no effect	D711K
with no effect	A712E
with no effect	A712K
with no effect	V713A
with no effect	V713E
with no effect	V713K
with no effect	E714A
with no effect	E714K
with no effect	E715A
disrupting interaction strength	E715K
with no effect	N716A
with no effect	N716E
with no effect	N716K
